Reference: patent US20240024426A1, “HYPOTENSIVE PHARMACEUTICAL COMPOSITION COMPRISING TRIPLE ACTIVATOR HAVING ACTIVITY FOR ALL OF GLUCAGON, GLP-1, AND GIP RECEPTORS” (HANMI PHARM. CO., LTD., priority 2020, published 2024)
Bridges are numbered along the chain shown (N, C = ends). Where no end group is shown, it is not given here. [ ]: non-standard residue; d: D form. The star is where a group is joined. Acetyl(2-(4-imidazolyl)) = O=C(Cc1c[nH]cn1)*; Aib = CC(C)(N)C(=O)O

T1: human GIP receptor (human, UniProt P48546 22-466)
T1 sequence (looked up): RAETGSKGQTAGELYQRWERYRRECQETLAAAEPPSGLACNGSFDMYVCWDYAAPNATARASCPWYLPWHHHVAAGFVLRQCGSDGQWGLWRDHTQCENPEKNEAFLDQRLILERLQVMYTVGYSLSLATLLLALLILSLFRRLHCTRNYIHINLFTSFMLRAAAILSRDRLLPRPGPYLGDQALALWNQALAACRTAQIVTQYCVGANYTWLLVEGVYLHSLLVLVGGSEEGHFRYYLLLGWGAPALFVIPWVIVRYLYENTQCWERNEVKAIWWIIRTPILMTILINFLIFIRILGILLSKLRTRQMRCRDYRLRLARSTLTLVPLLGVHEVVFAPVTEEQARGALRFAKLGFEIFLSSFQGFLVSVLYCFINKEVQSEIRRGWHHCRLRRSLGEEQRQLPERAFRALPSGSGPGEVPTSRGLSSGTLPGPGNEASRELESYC


Key:
Test in all cases: cell-based or functional assay
human GLP-1 receptor = human GLP-1 receptor (human, UniProt P43220 24-463)
human GCG receptor = human GCG receptor (human, UniProt P47871 26-477)
human GIP receptor = molecular target: T1, human GIP receptor

Sequence of human GCG receptor (P47871 26-477): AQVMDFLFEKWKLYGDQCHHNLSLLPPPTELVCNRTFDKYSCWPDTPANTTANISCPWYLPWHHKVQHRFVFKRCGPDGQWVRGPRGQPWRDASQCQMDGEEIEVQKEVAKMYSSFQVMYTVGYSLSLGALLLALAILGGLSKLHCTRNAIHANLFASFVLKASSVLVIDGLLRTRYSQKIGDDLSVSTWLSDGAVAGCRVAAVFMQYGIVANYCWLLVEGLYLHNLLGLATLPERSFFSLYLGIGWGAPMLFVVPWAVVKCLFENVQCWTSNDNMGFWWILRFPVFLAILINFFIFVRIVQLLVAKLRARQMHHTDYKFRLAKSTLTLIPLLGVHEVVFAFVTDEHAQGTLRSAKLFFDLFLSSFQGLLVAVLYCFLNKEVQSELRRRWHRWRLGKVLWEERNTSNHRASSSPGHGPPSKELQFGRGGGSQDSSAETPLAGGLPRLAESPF

| Binder | In vitro activity compared with native peptide (%) vs. GLP-1 (human GLP-1 receptor) | In vitro activity compared with native peptide (%) vs. Glucagon (human GCG receptor) | In vitro activity compared with native peptide (%) vs. GIP (human GIP receptor) |
| --- | --- | --- | --- |
| H[Aib]QGTFTSDYSKYLDEKRQKEFVQWLLDTC (bridge 16-20) [Triple agonist of SEQ ID NO: 52] | 44.1% | 7.5% | 0.3% |
| H[Aib]QGTFTSDYSIAMDEIHQKDFVNWLLNTKC (bridge 16-20) [Triple agonist of SEQ ID NO: 35] | 7.5% | < 0.1% | 1.3% |
| {Acetyl(2-(4-imidazolyl))}-[Aib]QGTFTSDYSICMDEKHQKDFVNWLLNTK (bridge 15-19) [Triple agonist of SEQ ID NO: 59] | 40.3% | < 0.1% | 4% |
| H[Aib]EGTFTSDYSIAMDEIHQKDFVDWLLAEC (bridge 16-20) [Triple agonist of SEQ ID NO: 54] | 30.6% | 1.4% | 0.1% |
| H[Aib]QGTFTSDYSKYLDEKRAKEFVQWLLDHHPSSGQPPPSC (bridge 16-20) [Triple agonist of SEQ ID NO: 50] | 67.4% | 50.5% | 2.7% |
| H[Aib]QGTFTSDYSIAMDEIHQKDFVNWLLNTC (bridge 16-20) [Triple agonist of SEQ ID NO: 57] | 11.7% | < 0.1% | 0.3% |
| H[Aib]EGTFTSDYSIAMDEIHQKDFVNWLLAQC (bridge 16-20) [Triple agonist of SEQ ID NO: 53] | 161% | 8.4% | 1.3% |
| {Acetyl(2-(4-imidazolyl))}-[Aib]QGTFTSDYSICMDEIHQKDFVNWLLNTK (bridge 15-19) [Triple agonist of SEQ ID NO: 49] | 29.8% | < 0.1% | 3.3% |
| H[Aib]QGTFTSDKSKYLDECAAQDFVQWLLDGGPSSGAPPPS [Triple agonist of SEQ ID NO: 41] | 34.3% | < 0.1% | < 0.1% |
| H[Aib]QGTFTSDVSSYLLGQQQKEFIAWLVKGC [Triple agonist of SEQ ID NO: 4] | 8.5% | < 0.1% | < 0.1% |
| H[Aib]QGTFTSDYSKYLDECRQKEFVQWLLNGGPSSGAPPPSG (bridge 16-20) [Triple agonist of SEQ ID NO: 37] | 236% | 6.21% | 2.2% |
| [Acetyl(2-(4-imidazolyl))][Aib]QGTFTSDKSSYLDERAAQDFVQWLLDGGPSSGAPPPSS [Triple agonist of SEQ ID NO: 38] | 2.3% |  |  |
| Y[Aib]QGTFTSDYSKYLDEKRAKEFVQWLLDHHCSSGQPPPS (bridge 16-20) [Triple agonist of SEQ ID NO: 43] | 12.6% | 88.4% | 3.7% |
| H[Aib]QGTFTSDYSKYLDEKRQKEFVQWLLNTKC (bridge 16-20) [Triple agonist of SEQ ID NO: 58] | 39.1% | 2.6% | 0.2% |
| H[Aib]QGTFTSDVSSYLDGQAAKEFVAWLLKGC [Triple agonist of SEQ ID NO: 6] | 17% | < 0.1% | < 0.1% |
| H[Aib]QGTFTSDYSKYLDEKRQKEFVNWLLAQC (also: ring formation, positions not given here) [Triple agonist of SEQ ID NO: 56] | 57.9% | 4.9% | 0.8% |
| Y[Aib]QGTFTSDYSKYLDEKRAKEFVQWLLDHHPSSGQPPPSC (bridge 16-20) [Triple agonist of SEQ ID NO: 42] | 33.9% | 206% | 7.8% |
| H[Aib]QGTFTSDYSKYLDEKRQKEFVNWLLAQKC (bridge 16-20) [Triple agonist of SEQ ID NO: 34] | 19.1% | 0.92% | 0.6% |
| {Acetyl(2-(4-imidazolyl))}-[Aib]QGTFTSDYSIAMDEKHCKDFVNWLLNTK (bridge 15-19) [Triple agonist of SEQ ID NO: 60] | 106% | < 0.1% | 8.2% |
| H[Aib]QGTFTSDVSSYLLGQQQKEFIAWLVKGGGPSSGAPPPSC [Triple agonist of SEQ ID NO: 5] | 42.1% | < 0.1% | < 0.1% |
| H[Aib]QGTFTSDKSKYLDERACQDFVQWLLDGGPSSGAPPPS [Triple agonist of SEQ ID NO: 40] | 75.2% | < 0.1% | < 0.1% |
| H[Aib]QGTFTSDYSKYLDEKRQKEFVQWLLNTC (bridge 16-20) [Triple agonist of SEQ ID NO: 51] | 14.4% | 2% | 0.1% |
| H[Aib]QGTFTSDYSIAMDEIHQKDFVNWLLAQC (bridge 16-20) [Triple agonist of SEQ ID NO: 55] | 27.1% | 0.7% | 2.4% |
| H[Aib]QGTFTSDYSKYLCEKRQKEFVQWLLNGGPSSGAPPPSG (bridge 16-20) [Triple agonist of SEQ ID NO: 36] | 37.4% | 0.39% | 0.2% |
| H[Aib]QGTFTSDYSKYLDGQHAQCFVAWLLAGGGPSSGAPPPS [Triple agonist of SEQ ID NO: 39] | 13.9% | 0.53% | < 0.1% |
| HGQGTFTSDCSKQLDGQAAQEFVAWLLAGGPSSGAPPPS [Triple agonist of SEQ ID NO: 44] | 1.3% | < 0.1% | < 0.1% |
| HGQGTFTSDCSKYLDGQRAQDFVNWLLAGGPSSGAPPPS [Triple agonist of SEQ ID NO: 48] | 1.5% | < 0.1% | < 0.1% |
| HGQGTFTSDCSKYLDGQRAQEFVAWLLAGGPSSGAPPPS [Triple agonist of SEQ ID NO: 47] | 2.4% | < 0.1% | < 0.1% |
| HGQGTFTSDCSKYMDGQAAQDFVAWLLAGGPSSGAPPPS [Triple agonist of SEQ ID NO: 45] | 6.6% | < 0.1% | < 0.1% |
| HGQGTFTSDCSKYLDEQHAQEFVAWLLAGGPSSGAPPPS [Triple agonist of SEQ ID NO: 46] | 1.4% | < 0.1% | < 0.1% |
